Results: the Human Domainome abundance scans (Beltran et al. 2025)
± gives the uncertainty stated by the source.

B1: Retinoic acid receptor RXR-alpha, residues 132 to 208; numbered along this chain, P19793 (parent)
chain: KHICAICGDRSSGKHYGVYSCEGCKGFFKRTVRKDLTYTCRDNKDCLIDKRQRNRCQYCRYQKCLAMGMKREAVQEE

Variants of: B1
Assay: abundance fitness (aPCA) (normalised: wild type 0, dead -1); higher = more abundant; growth selection in yeast, the domain comes from the species named
Conditions: Homo sapiens

Abundance fitness: each site, then its substitutions
D45: R 0.001 ± 0.03, T -0.051 ± 0.051
D42: N 0.02 ± 0.11, G 0.091 ± 0.34
C24: K -1.15 ± 0.11, F -0.889 ± 0.074, V -0.917 ± 0.053, N -1.18 ± 0.11, W -1.01 ± 0.076, Y -1.09 ± 0.12, E -0.559 ± 0.045, M -1.18 ± 0.11, H -0.971 ± 0.095, A -0.875 ± 0.051, Q -0.891 ± 0.087, R -0.958 ± 0.048, D -0.049 ± 0.033, G -0.945 ± 0.046, S -1 ± 0.054, I -0.987 ± 0.074, P -0.904 ± 0.082, L -1.01 ± 0.058
N43: V 0.013 ± 0.037, R -0.003 ± 0.03, W -0.008 ± 0.042, M 0.02 ± 0.048, G 0.053 ± 0.031, S 0.019 ± 0.042, C -0.115 ± 0.059, A 0.008 ± 0.039, Q -0.099 ± 0.052, D -0.181 ± 0.12, T 0.049 ± 0.046, I 0.019 ± 0.075, P -0.065 ± 0.052, F -0.071 ± 0.068, K 0.1 ± 0.052, L -0.009 ± 0.036, H 0.066 ± 0.082, E 0.053 ± 0.04, Y -0.043 ± 0.061
D35: N -0.164 ± 0.12, Y -0.131 ± 0.21, G -0.028 ± 0.25
L47: P -0.045 ± 0.054, I -0.002 ± 0.065, F 0.011 ± 0.061, E 0.004 ± 0.041, Q -0.095 ± 0.071, G 0.016 ± 0.027, N -0.098 ± 0.076, S -0.122 ± 0.038, A 0.005 ± 0.035, H -0.016 ± 0.079, R -0.109 ± 0.029, M -0.048 ± 0.044, K -0.062 ± 0.061, D -0.072 ± 0.055
T31: P -0.641 ± 0.059, L -0.136 ± 0.025, S -0.02 ± 0.026, N -0.114 ± 0.034, H -0.132 ± 0.037, K -0.233 ± 0.044, Q -0.079 ± 0.039, Y -0.094 ± 0.035, E -0.188 ± 0.038, I -0.092 ± 0.034, F -0.078 ± 0.035, A -0.03 ± 0.026, W -0.043 ± 0.034, R -0.504 ± 0.033, M 0 ± 0.038, V -0.003 ± 0.027, C -0.005 ± 0.032
G23: W -0.015 ± 0.028, Y -0.312 ± 0.035, R -0.037 ± 0.023, V -0.144 ± 0.025, T -0.256 ± 0.03, Q -0.157 ± 0.033, S -0.288 ± 0.027
L36: F 0.046 ± 0.057, D 0.053 ± 0.046, A 0.031 ± 0.04, M -0.061 ± 0.043, E 0.021 ± 0.039, C 0.087 ± 0.053, H 0.014 ± 0.06, G 0.022 ± 0.026, V 0.009 ± 0.032, T -0.028 ± 0.049, Y -0.055 ± 0.073, N -0.024 ± 0.075, K -0.018 ± 0.052, W -0.028 ± 0.037, P -0.067 ± 0.059, Q 0.005 ± 0.051, R 0.008 ± 0.03
F28: P -0.906 ± 0.14, S -0.824 ± 0.087, H -0.495 ± 0.12, I -0.289 ± 0.078, M 0.024 ± 0.064, Y -0.13 ± 0.065, W -0.024 ± 0.036, A -0.49 ± 0.047, E -0.289 ± 0.048, T -0.894 ± 0.12, D -0.57 ± 0.088, V -0.321 ± 0.037, L -0.316 ± 0.039, N -0.653 ± 0.16, C -0.753 ± 0.14, K -1.13 ± 0.2, R -0.917 ± 0.064
K29: I -0.163 ± 0.06, R -0.003 ± 0.03, D -0.013 ± 0.053, W 0.003 ± 0.036, N 0.027 ± 0.053, E 0.028 ± 0.037, T 0.021 ± 0.04, G 0.025 ± 0.028, V 0.054 ± 0.033, F -0.035 ± 0.065, P -0.531 ± 0.08, S -0.059 ± 0.039, L 0.009 ± 0.037, M 0.038 ± 0.041, A 0.05 ± 0.036, H -0.074 ± 0.071, C -0.223 ± 0.059
C40: T -0.643 ± 0.082, G -0.815 ± 0.052, K -0.504 ± 0.078, E -0.405 ± 0.056, M -0.621 ± 0.088, L -0.454 ± 0.05, P -0.591 ± 0.082, V -0.737 ± 0.056, R -0.659 ± 0.053, A -0.602 ± 0.054, W -0.832 ± 0.089, N -0.732 ± 0.15, H -0.09 ± 0.077, D -0.314 ± 0.083, Q -0.707 ± 0.1, I -0.697 ± 0.15
T39: H 0.134 ± 0.092, C 0.04 ± 0.051, E 0.048 ± 0.037, V 0.05 ± 0.03, L -0.052 ± 0.033, D 0.045 ± 0.062, N 0.03 ± 0.07, S 0.03 ± 0.036, W -0.009 ± 0.039, A -0.015 ± 0.037, P 0.027 ± 0.05, R 0.008 ± 0.03, I 0.099 ± 0.052, Y 0.006 ± 0.093, G 0.045 ± 0.027, Q -0.033 ± 0.046, M 0.046 ± 0.041, K 0.027 ± 0.044
